Reference: patent US20090238754A1, “USE OF PYRENE TO CARRY PEPTIDES ACROSS THE BLOOD BRAIN BARRIER” (Adlyfe, Inc., priority 2008, published 2009)
pyrene = pyrene label

What was measured:
Type in all cases: in vivo
Aβ plaques [1] = biological target: T1, Aβ plaques (Homo sapiens, UniProt P05067); assay: Fluorescent labeling of Aβ plaques in brain after intravenous administration to hAPP transgenic mice (Example 3); settings: intravenous 30 mg/kg, tail vein, 6 hours after administration
T1 construct: from tissue; host or cells: brain of living hAPP transgenic mice (in vivo dosing, brain sections imaged)
T1 sequence (P05067 672-713 limits assumed): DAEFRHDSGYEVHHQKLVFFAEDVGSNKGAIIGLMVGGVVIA
Method: hAPP transgenic mice were administered the Aβ peptide-agent conjugate described above intravenously at a dose of 30 mg/kg through the tail vein. Mice were sacrificed at 6 hours after the administration of the conjugate, and brain sections were prepared for imaging as described above. After a section was imaged for conjugate fluorescence, it was bleached of fluorescence and stained with a Thioflavin S stain.

Aβ plaques [2] = biological target: T1, Aβ plaques; assay: Fluorescent labeling of Aβ plaques in brain after intranasal administration to hAPP transgenic mice (Example 2); settings: for fluorescent labeling of Aβ plaques (FIG. 1): three 10 μl injections at 20 minute intervals, sacrificed 6 hours later, hAPP transgenic mice
Method: Three groups of three hAPP transgenic mice were treated with vehicle (10% DMSO), the Aβ peptide-agent conjugate described above, or pyrene butyrate. Mice received three 10 μl injections at 20 minute intervals over a one hour period. Mice were sacrificed 6 hours later and tissues were collected. Flourescence in sagital sections was performed using fixed frozen tissue and a UV-2A fileter-equipped microscope. All plaque counts were performed on a digital images using Image-Pro-Plus software (Media Cybernetics, Inc., Bethesda, Md.).

Aβ plaques [3] = biological target: T1, Aβ plaques; assay: Intranasal administration of peptide agent conjugate to hAPP751SL transgenic mice and littermate controls, brain fluorescence imaging (Example 1)
From the text: The following illustrates the ability of peptide agent conjugates to target Aβ plaques (e.g., insoluble self-aggregates of Aβ protein associated with Alheimer's disease) in vivo. A peptide agent specific for Aβ corresponding to residues 16-35 of the Aβ protein (SEQ ID NO:3) with an added C-terminal lysine residue (e.g., SEQ ID NO:5) for conjugating pyrene, and labeled at each terminus with pyrene is used.
In vivo studies use four homozygous hAPP751SL transgenic 10 month old mice and four littermate controls (siblings not carrying the transgene). The labeled peptide agent conjugate is administered intranasally, at 10 μl liquid per administration (at concentrations of from 0.1 to 2.0 mg/ml) with an administration interval of a planned half of an hour, adjusted according to the condition of the animal after treatment.
At the end of the treatment, mice are sacrificed and CSF and brains are extracted. (All mice are sedated by standard inhalation anaesthesia, Isofluran, Baxter).
Cerebrospinal fluid is obtained by blunt dissection and exposure of the foramen magnum. Upon exposure, a Pasteur pipette is inserted to the approximate depth of 0.3-1 mm into the foramen magnum. CSF is collected by suctioning and capillary action until flow fully ceases. CSF is immediately frozen and kept at −80° C. until use.
After CSF sampling, the stomach, stomach content and the brains are rapidly removed. Brains are hemisected, and the right hemisphere of all mice are immersion fixed in freshly produced 4% Paraformaldehyde/PBS (pH 7.4) for one hour at room temperature, and transferred to a 15% sucrose/PBS solution for 24 hours to ensure cryoprotection. Thereafter, brains are frozen in liquid isopentane on the next day and stored at −80° C. until used for histological investigations. The other brain half is immediately shock frozen in liquid isopentane for future use.
To assess the specifity of staining by the peptide agent conjugate, fluorescence is excited using a UV-2A and B-1E filter of a microscope to detect probable auto-fluorescence in the lower spectrum. […]

[4] = Clearance of conjugate determined by analysis of cerebrospinal fluid; settings: 6 hours post-administration; CSF revealed no evidence of circulating conjugate
Method: The rate of localization and clearance or degradation of a conjugate can be assessed experimentally, for example, by administering the conjugates to mice and sacrificing them for analysis at different times post-administration, such as at time periods including 2 minutes, 10 minutes, 30 minutes, 60 minutes, 1 hour, 2 hours, 3 hours, 4 hours, 5 hours, 6 hours, or longer, post-administration.

Row | Substance | correlation between conjugate fluorescence and Thioflavin S staining (Aβ plaques [1]; cortex (FIG. 3A)) | correlation between conjugate fluorescence and Thioflavin S staining (Aβ plaques [1]; hippocampus (FIG. 3B)) | correlation between conjugate fluorescence and Thioflavin S staining (Aβ plaques [2]; hippocampus (data not shown)) | coincidence of conjugate fluorescence with 6E10 antibody and Thioflavin S plaque staining (Aβ plaques [2]; sequential sagital brain sections, co-merged images) | fluorescent labeling of Aβ plaques (FIG. 1) (Aβ plaques [2]) | binding to amyloid in the brain (Aβ plaques [3]; hAPP751SL transgenic mice) | localization and binding in the brain (Aβ plaques [3]; nontransgenic mice) | crossing of the blood-brain barrier (BBB) (Aβ plaques [3]; transgenic mice treated with the highest dose, brain images vs control mice and transgenic vehicle control) | clearance, as determined by analysis of cerebrospinal fluid [4]
1 | AD185: Peptide of residues 16-35 of the Aβ protein with added C-terminal lysine (SEQ ID NO:5), labeled at each terminus with pyrene (pyrene-KLVFFAEDVGSNKGAIIGLMK-pyrene) | significant correlation | significant correlation | positive correlation | coincided with the antibody and Thioflavin S plaque staining | showed fluorescent labeling of Aβ plaques | binds to the amyloid and agglomerates outside the blood vessel in the brain | reaches the olfactory bulb, but does not bind to a specifiable morphological structure | crosses the blood-brain barrier | cleared
2 | pyrene butyrate [reference compound] | – | – | – | – | did not | – | – | – | –
